Experimental data published in patent US6875741 (Novo Nordisk, dated 2005).

Experiments:
[1] = target: T1, soluble human insulin receptor-immunoglobulin heavy chain chimera (human, UniProt P06213 28-956); assay: phage ELISA ratios compared
T1 construct: extracellular domain; Heterotetramer; also called IR; sIR-Fc; not shown: immunoglobulin heavy chain constant domains replacing the transmembrane and intr

[2] = target: T2, Soluble IGF-1R (R&D Systems, Cat. # 391-GR) (UniProt P08069 31-935, limits assumed); assay: phage ELISA ratios compared
T2 construct: extracellular domain; bought; also called sIGF-1R

IR/IGF-1R ratio comparison [1]	IGF-1R/IR ratio comparison [2]	Binder
0.1	7.3	VATSQGFYSGLSELLQGGGNV [20E2B-3-E12-IGFR]
0.1	10.3	DRAFYNGLRDLVGAVYGAWD [R20α-4-20C11-IR]
0.1	7.6	QFYGCLLDLSLGVPSFGWRRRCITA [20C-3-A4-IGFR]
0.1	15.5	LKDGFYDYFWQRLHLGS [NNRPγ-4-B11-IR]
0.5	2.1	FRTLAAQHDSFYDWFDRQVSGAAGER [H2CA-3-C11-IGFR]
0.2	6.2	ASSASGFYELLQRLAGLGLEV [20E2B-3-C4-IGFR]
0.4	2.6	VERSASSQDGNFYDWFVVQIR [A6S-2-D1-IR]
0.1	13.1	PDLHKGFYAQLAQLIRGQLLS [20E2B-3-E3-IGFR]
< 0.1	21.8	FFYDCLAALLQGVARYHDLCAVEIT [20C-4-C7-IGFR]
0.1	17.3	RGQSDAFYSGLWALIGLSDG [R20β-4-A6-IR]
0.1	14.6	QGGSASFYDAIDRLLRMRIGG [20E2A-4-F11-IGFR]
0.2	5	TLRSPTFYDWLEMVLTHGQGG [20E2B-1-A8-IGFR]
0.1	7	RQGTGSFYLMLEQLLVGARGP [20E2B-4-G11-IGFR]
< 0.1	27	TFYSCLASLLTGTPQPNRGPWERCR [20C-3-G3-IGFR]
0.1	6.7	LSSDGQFYRALNLLLQGSAGR [20E2B-2-B7-IGFR]
0.1	9.7	PVGVQGFYEGLSRLVLGRGGW [20E2B-4-F8-IGFR]
0.2	5.1	VGTVAGFYDAIAQLVARASRV [20E2A-3-C7-IGFR]
0.2	5.6	RCQGTGFYTCIQELIGFGDPD [20E2B-4-H9-IGFR]
0.1	9.6	NSRDGGFYLQLERLLGFPVTG [20E2B-3-D4-IGFR]
0.2	5.3	SGAKVIVVTGDSGDPFYHKLSELLQGS [B6Hα-2-C10-IR]

IR/IGF-1R ratio comparison [1]	IGF-1R/IR ratio comparison [2]	Binder
0.1	12.9	FYDAIDQLVRGSARAGGTRD [R20α-3-20E2-IR]
0.1	13.9	KLHNLMFYYGLQRLVWGAGLG [20E2B-4-H3-IGFR]
0.1	9.7	RFSTDGFYQYLLALVGGGPVG [20E2B-1-A11-IGFR]
0.1	12.8	YSCGDGFYSLLSDLLGGQFRC [20E2B-4-H12-IGFR]
0.1	6.9	DSVGDNFYQLLESLVGGHGVG [20E2B-3-D6-IGFR]
0.1	7.3	QGNVLDFYGWIGRLLAKQGSD [20E2B-3-D12-IGFR]
0.1	7.8	AQPCGGFYGLLEQLVGRSVCD [20E2B-4-F10-IGFR]
0.1	7.4	ICTGQGFYQVLCGLLRGTSAR [20E2B-2-B3-IGFR]
0.1	14.8	VEGRGLFYDLLRQLLARRQNG [20E2B-3-C6-IGFR]
0.1	8.1	PGTDLGFYQALRCVVIQGACD [20E2B-2-B2-IGFR]
0.2	4.9	RFDPFYSYFVNLLGASA [NNRPγ-4-A7-IR]
0.2	6	FFYRCLSRLLGGQLGSRLGLSCIGD [20C-3-E4-IGFR]
0.2	5.9	PAGPCGFYCGLGLLLHGDQSP [20E2B-4-H8-IGFR]
0.1	7.1	EGSGFYGYFFSLLGLQG [NNRPγ-4-A9-IR]
0.1	11.7	IQQELTFYDLLHRLVRSELGS [20E2B-3-D2-IGFR]
0.1	16.8	GVRAMSFYDALVSVLGLGPSG [20E2B-1-A6-IGFR]
0.4	2.5	TSEVQRRSQDNFYDWFVAQVA [A6S-3-E2-IR]
0.1	7.2	IWATGDFYRLLSQLVMGRVGT [20E2B-2-B8-IGFR]
0.1	16.6	RLFYCGIQALGANLGYSGCV [R20α-4-20A12-IR]
